± gives the uncertainty stated by the source.
B1: Tesmin, residues 368 to 403; numbered along this chain, Q9Y4I5 (parent)
chain: KGCNCRRSGCLKNYCECYEAQIMCSSICKCIGCKNY

Variants of: B1
Test: abundance fitness (aPCA) (normalised: wild type 0, dead -1); higher = more abundant; growth selection in yeast, the domain comes from the species named
Conditions: Homo sapiens

C10A and C10S are within error of each other in abundance fitness: -0.141 ± 0.091 for the first, -0.213 ± 0.078 for the second.

Compared with C10Q, C10M is lower in abundance fitness: -0.208 ± 0.086 for the first, -0.501 ± 0.11 for the second.

C10T and C10N are within error of each other in abundance fitness: -0.245 ± 0.093 for the first, -0.405 ± 0.11 for the second.

Y18N and Y18G are within error of each other in abundance fitness: 0.083 ± 0.093 for the first, 0.034 ± 0.071 for the second.

Y18L and Y18V are within error of each other in abundance fitness: -0.353 ± 0.078 for the first, -0.27 ± 0.096 for the second.

Going from Y18S to Y18I, the abundance fitness falls from -0.059 ± 0.076 to -0.318 ± 0.14.

Y18P and Y18D are within error of each other in abundance fitness: -0.066 ± 0.087 for the first, -0.088 ± 0.13 for the second.

Y18F and Y18R are within error of each other in abundance fitness: -0.089 ± 0.46 for the first, -0.153 ± 0.08 for the second.

First: Y18C
Second: Y18Q
The abundance fitness of the first is lower: -0.106 ± 0.1 for the first, 0.107 ± 0.11 for the second.

Y18M and Y18T are within error of each other in abundance fitness: 0.098 ± 0.14 for the first, -0.082 ± 0.13 for the second.

Y18H and Y18A are within error of each other in abundance fitness: -0.016 ± 0.12 for the first, -0.03 ± 0.075 for the second.

Y18E and Y18W are within error of each other in abundance fitness: 0.058 ± 0.095 for the first, -0.047 ± 0.11 for the second.

S8D and S8A are within error of each other in abundance fitness: -0.066 ± 0.098 for the first, -0.144 ± 0.083 for the second.

First: S8G
Second: S8W
The abundance fitness of the first is higher: 0.034 ± 0.068 for the first, -0.527 ± 0.095 for the second.

S8E and S8V are within error of each other in abundance fitness: -0.08 ± 0.1 for the first, -0.187 ± 0.077 for the second.

Going from S8H to S8Q, the abundance fitness rises from -0.461 ± 0.17 to -0.063 ± 0.11.

S8Y and S8C are within error of each other in abundance fitness: -0.514 ± 0.13 for the first, -0.581 ± 0.093 for the second.

S8I and S8K are within error of each other in abundance fitness: 0.19 ± 0.37 for the first, -0.107 ± 0.13 for the second.

Going from S8L to S8M, the abundance fitness falls from -0.106 ± 0.091 to -0.343 ± 0.12.

First: S8R
Second: S8F
The abundance fitness of the first is higher: -0.169 ± 0.068 for the first, -0.399 ± 0.15 for the second.

S8N and C5I are within error of each other in abundance fitness: -0.384 ± 0.13 for the first, -0.936 ± 0.46 for the second.

First: C5W
Second: C5Q
The abundance fitness of the first is lower: -0.523 ± 0.079 for the first, -0.346 ± 0.095 for the second.

Compared with C5P, C5H is higher in abundance fitness: -0.296 ± 0.1 for the first, 0.066 ± 0.2 for the second.

Compared with C5L, C5E is higher in abundance fitness: -0.455 ± 0.1 for the first, -0.176 ± 0.08 for the second.

First: C5G
Second: C5M
The abundance fitness of the first is lower: -0.65 ± 0.069 for the first, -0.286 ± 0.11 for the second.

C5N and C5A are within error of each other in abundance fitness: -0.478 ± 0.21 for the first, -0.414 ± 0.075 for the second.

Going from C5D to C5T, the abundance fitness rises from -0.794 ± 0.24 to -0.431 ± 0.094.

Going from C5S to C5V, the abundance fitness falls from -0.342 ± 0.08 to -1.24 ± 0.083.

C3G and C3M are within error of each other in abundance fitness: -0.236 ± 0.07 for the first, -0.194 ± 0.1 for the second.

Compared with C3K, C3A is lower in abundance fitness: -0.115 ± 0.11 for the first, -0.33 ± 0.073 for the second.

C3W and C3L are within error of each other in abundance fitness: -0.624 ± 0.091 for the first, -0.677 ± 0.081 for the second.

C3S and C3P are within error of each other in abundance fitness: -0.702 ± 0.11 for the first, -0.577 ± 0.11 for the second.

C3F and C3T are within error of each other in abundance fitness: -0.567 ± 0.24 for the first, -0.322 ± 0.082 for the second.

C3H and C3Y are within error of each other in abundance fitness: -0.363 ± 0.21 for the first, -0.056 ± 0.27 for the second.

C3D and C3I are within error of each other in abundance fitness: -0.262 ± 0.14 for the first, -0.51 ± 0.23 for the second.

First: C3Q
Second: R7G
The abundance fitness of the first is lower: -0.462 ± 0.085 for the first, 0.268 ± 0.073 for the second.

R7M and R7L are within error of each other in abundance fitness: 0.214 ± 0.18 for the first, -0.021 ± 0.077 for the second.

Going from R7W to R7Q, the abundance fitness rises from -0.255 ± 0.073 to 0.282 ± 0.12.

Compared with R7P, R7C is lower in abundance fitness: -0.103 ± 0.085 for the first, -0.401 ± 0.14 for the second.

R7T and R7A are within error of each other in abundance fitness: 0.047 ± 0.14 for the first, 0.248 ± 0.075 for the second.

Compared with R7E, R7Y is lower in abundance fitness: 0.398 ± 0.096 for the first, 0.035 ± 0.19 for the second.

First: R7K
Second: R7I
The abundance fitness of the first is higher: 0.039 ± 0.17 for the first, -0.336 ± 0.14 for the second.

N13W and N13Y are within error of each other in abundance fitness: -0.755 ± 0.1 for the first, -0.51 ± 0.26 for the second.

Compared with N13L, N13V is lower in abundance fitness: -0.266 ± 0.085 for the first, -0.619 ± 0.08 for the second.

First: N13R
Second: N13F
The abundance fitness of the first is higher: -0.218 ± 0.068 for the first, -0.613 ± 0.23 for the second.

N13H and N13I are within error of each other in abundance fitness: -0.871 ± 0.41 for the first, -0.398 ± 0.17 for the second.

N13Q and N13K are within error of each other in abundance fitness: -0.061 ± 0.1 for the first, -0.075 ± 0.085 for the second.

N13S and N13P are within error of each other in abundance fitness: -0.181 ± 0.074 for the first, -0.258 ± 0.095 for the second.

First: N13M
Second: N13G
The abundance fitness of the first is lower: -0.556 ± 0.13 for the first, -0.045 ± 0.071 for the second.

Compared with N13C, N13E is higher in abundance fitness: -0.558 ± 0.17 for the first, -0.061 ± 0.084 for the second.

N13D and N13T are within error of each other in abundance fitness: -0.092 ± 0.12 for the first, -0.297 ± 0.24 for the second.

Going from Y14G to Y14T, the abundance fitness falls from 0.096 ± 0.073 to -0.222 ± 0.1.

Y14K and Y14D are within error of each other in abundance fitness: -0.02 ± 0.092 for the first, 0.171 ± 0.11 for the second.

Y14C and Y14N are within error of each other in abundance fitness: 0.14 ± 0.14 for the first, 0.267 ± 0.14 for the second.

Y14M and Y14S are within error of each other in abundance fitness: 0.153 ± 0.1 for the first, 0.047 ± 0.095 for the second.

Y14E and Y14V are within error of each other in abundance fitness: 0.013 ± 0.1 for the first, -0.082 ± 0.072 for the second.

Y14I and Y14A are within error of each other in abundance fitness: -0.09 ± 0.1 for the first, -0.253 ± 0.077 for the second.

Y14Q and Y14R are within error of each other in abundance fitness: 0.007 ± 0.092 for the first, 0.01 ± 0.075 for the second.

Y14P and Y14W are within error of each other in abundance fitness: 0.145 ± 0.09 for the first, -0.01 ± 0.094 for the second.

E19Q and E19T are within error of each other in abundance fitness: -0.131 ± 0.1 for the first, -0.308 ± 0.1 for the second.

E19A and E19K are within error of each other in abundance fitness: -0.107 ± 0.086 for the first, -0.1 ± 0.11 for the second.

E19V and E19S are within error of each other in abundance fitness: -0.201 ± 0.1 for the first, -0.226 ± 0.093 for the second.

E19N and E19M are within error of each other in abundance fitness: -0.351 ± 0.22 for the first, -0.18 ± 0.15 for the second.

Going from E19L to E19G, the abundance fitness rises from -0.281 ± 0.11 to -0.043 ± 0.075.

E19C and E19R are within error of each other in abundance fitness: -0.132 ± 0.091 for the first, -0.188 ± 0.084 for the second.

E19F and E19P are within error of each other in abundance fitness: -0.31 ± 0.29 for the first, -0.284 ± 0.12 for the second.

First: E19D
Second: N4M
The abundance fitness of the first is lower: -0.243 ± 0.12 for the first, -0.011 ± 0.083 for the second.

N4L and N4K are within error of each other in abundance fitness: -0.207 ± 0.077 for the first, -0.314 ± 0.15 for the second.

N4I and N4G are within error of each other in abundance fitness: -0.31 ± 0.2 for the first, -0.103 ± 0.07 for the second.

First: N4R
Second: N4D
The abundance fitness of the first is lower: -0.16 ± 0.08 for the first, 0.22 ± 0.11 for the second.

N4S and N4E are within error of each other in abundance fitness: -0.103 ± 0.093 for the first, -0.056 ± 0.082 for the second.

N4A and N4T are within error of each other in abundance fitness: -0.162 ± 0.078 for the first, -0.186 ± 0.094 for the second.

Compared with N4P, N4Y is lower in abundance fitness: -0.033 ± 0.083 for the first, -0.226 ± 0.092 for the second.

First: N4C
Second: N4V
The abundance fitness of the first is higher: -0.183 ± 0.1 for the first, -1.13 ± 0.1 for the second.

N4H and C15P are within error of each other in abundance fitness: -0.199 ± 0.14 for the first, -0.259 ± 0.097 for the second.

First: C15T
Second: C15I
The abundance fitness of the first is higher: -0.382 ± 0.088 for the first, -0.809 ± 0.15 for the second.

C15L and C15Y are within error of each other in abundance fitness: -0.713 ± 0.093 for the first, -0.658 ± 0.22 for the second.

Going from C15W to C15F, the abundance fitness rises from -0.993 ± 0.11 to -0.742 ± 0.13.

C15S and C15M are within error of each other in abundance fitness: -0.596 ± 0.11 for the first, -0.689 ± 0.12 for the second.

Going from C15Q to C15V, the abundance fitness falls from -0.282 ± 0.087 to -0.65 ± 0.079.

C15D and C15K are within error of each other in abundance fitness: -0.04 ± 0.25 for the first, -0.295 ± 0.11 for the second.

C15H and C15A are within error of each other in abundance fitness: -0.425 ± 0.15 for the first, -0.394 ± 0.077 for the second.

C15R and C15G are within error of each other in abundance fitness: -0.378 ± 0.072 for the first, -0.305 ± 0.074 for the second.

Work on C15E yielded an abundance fitness of -0.076 ± 0.1.
